Columns and labels:
[1] = molecular target: opioid sensor based on the Mu-opioid receptor (cpGFP inserted into the Loop3 of the Mu-opioid receptor) (human); assay: in situ fluorescence titration (drug/response curve, 1 nM to 1 µM DAMGO) on HEK293T cells expressing the opioid sensor
[2] = molecular target: opioid sensor based on the Mu-opioid receptor (cpGFP inserted into the Loop3 of the Mu-opioid receptor) (human); assay: cell-based or functional assay

DAMGO (peptide)
Kd [1]: 25 nM | ΔF/F (fluorescence change of the sensor) [2]: 25%

— patent US20210101960A1
